# Results from article PMC7954794, “Protein context shapes the specificity of SH3 domain-mediated interactions in vivo” (Nature Communications, 2021).
# B1: WT (protein, UniProt P15891 2-592, looked up)
# Actin-binding protein: ALEPIDYTTHSREIDAEYLKIVRGSDPDTTWLIISPNAKKEYEPESTGSSFHDFLQLFDETKVQYGLARVSPPGSDVEKIIIIGWCPDSAPLKTRASFAANFAAVANNLFKGYHVQVTARDEDDLDENELLMKISNAAGARYSIQTSSKQQGKASTPPVKKSFTPSKSPAPVSKKEPVKTPSPAPAAKISSRVNDNNDDDDWNEPELKERDFDQAPLKPNQSSYKPIGKIDLQKVIAEEKAKEDPRLVQKPTAAGSKIDPSSDIANLKNESKLKRDSEFNSFLGTTKPPSMTESSLKNDDDKVIKGFRNEKSPAQLWAERKAKQNSGNAETKAEAPKPEVPEDEPEGEPDVKDLKSKFEGLAASEKEEEEMENKFAPPPKKSEPTIISPKPFSKPQEPVKAEEAEQPKTDYKKIGNPLPGMHIEADNEEEPEENDDDWDDDEDEAAQPPLPSRNVASGAPVQKEEPEQEEIAPSLPSRNSIPAPKQEEAPEQAPEEEIEEEAEEAAPQLPSRSSAAPPPPPRRATPEKKPKENPWATAEYDYDAAEDNELTFVENDKIINIEFVDDDWWLGELEKDGSKGLFPSNYVSLGN
# Test system: Abp1 PPIs
# Assay: DHFR-PCA of Abp1 SH3-swapped baits (Fig. 2B-D, S2C, S2F)
# Assay type: cell-based, Saccharomyces cerevisiae
# Settings: number of interactions of Abp1 carrying the named SH3; sheet FigS2A-B
# Method in brief: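 Yeast DHFR-PCA in which Abp1 baits, carrying their SH3 replaced by CRISPR–Cas9 with one of 27 yeast SH3s or human CTTN, HCLS1 or DBNL SH3s, were mated against 575 SH3-associated DHFR F[3] preys plus 40 negative controls. Four tests were run per PPI. Diploids were selected twice (48 h, 30 °C), then grown 4 days on PCA selection media.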
molecule,measurement,value
B1,Interactions in Abp1,80
